This note sets out measurements from patent publication US20230303680A1 (UNIVERSIT T Z RICH, published 2023).

B1: UFKA-22-10 (antibody, human IgG1, V domains shown)
VH: EVQLVESGGGLVKPGGSLRLSCAASGFSFSNYAMSWVRQAPGKGLEWVSLISGGGSYSYYPDSLKGRFTISRDSAKNSLYLQMSSLRAEDTAVYYCARHMGYNDYLAWFAYWGQGTLVTVSS
VL: DIVMTQSPDSLAVSLGERATINCKSSQSLLNSANQKNYLAWYQQKPGQPPKLLIYFASTRESGVPDRFIGSGSGTDFTLTISSLQAEDVAVYYCQQYYSAPPWTFGGGTKVEIK
B2: UFKA-22-00 (humanized UFKA-20) (antibody, human IgG1, kappa, N297A, V domains shown)
VH: EVQLVESGGGLVKPGGSLRLSCAASGFSFSNYAMSWVRQAPGKGLEWVSLISGGGSYSYYPDSLKGRFTISRDNAKNSLYLQMNSLRAEDTAVYYCARHMGYNDYLAWFAYWGQGTLVTVSS
VL: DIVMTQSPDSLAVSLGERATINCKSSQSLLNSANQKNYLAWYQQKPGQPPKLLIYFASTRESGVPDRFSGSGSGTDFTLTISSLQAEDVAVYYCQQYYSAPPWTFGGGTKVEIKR
notes: Human IgG1 with N297A
B3: UFKA-22-08 (antibody, human IgG1, V domains shown)
VH: EVQLVESGGGLVKPGGSLRLSCAASGFSFSNYAMSWVRQAPGKGLEWVSLISGGGSYSYYPDSLKGRFTISRDSAKNSLYLQMNSLRAEDTAVYYCARHMGYNDYLAWFAYWGQGTLVTVSS
VL: DIVMTQSPDSLAVSLGERATINCKSSQSLLNSANQKNYLAWYQQKPGQPPKLLIYFASTRESGVPDRFIGSGSGTDFTLTISSLQAEDVAVYYCQQYYSAPPWTFGGGTKVEIK
B4: UFKA-22-01 (antibody, human IgG1, V domains shown)
VH: EVQLVESGGGLVKPGGSLRLSCAASGFSFSNYAMSWVRQAPGKGLEWVSLISGGGSYSYYPDSLKGRFTISRDSAKNSLYLQMNSLRAEDTAVYYCARHMGYNDYLAWFAYWGQGTLVTVSS
VL: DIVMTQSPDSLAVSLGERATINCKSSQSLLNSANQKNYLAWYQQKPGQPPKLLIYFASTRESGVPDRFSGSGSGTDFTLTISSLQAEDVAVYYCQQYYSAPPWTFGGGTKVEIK
B5: UFKA-22-04 (antibody, human IgG1, V domains shown)
VH: EVQLVESGGGLVKPGGSLRLSCAASGFSFSNYAMSWVRQAPGKGLEWVSLISGGGSYSYYPDSLKGRFTISRDSAKNSLYLQMNSLRAEDTAMYYCARHMGYNDYLAWFAYWGQGTLVTVSS
VL: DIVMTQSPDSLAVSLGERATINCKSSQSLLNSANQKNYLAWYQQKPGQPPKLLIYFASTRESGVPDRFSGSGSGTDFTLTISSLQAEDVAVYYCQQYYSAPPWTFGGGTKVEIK
B6: UFKA-22-13 (antibody, human IgG1, V domains shown)
VH: EVQLVESGGGLVKPGGSLRLSCAASGFSFSNYAMSWVRQAPGKGLEWVSLISGGGSYSYYPDSLKGRFTISRDSAKNSLYLQMSSLRAEDTAMYYCARHMGYNDYLAWFAYWGQGTLVTVSS
VL: DIVMTQSPDSLAVSLGERATINCKSSQSLLNSANQKNYLAWYQQKPGQPPKLLIYFASTRESGVPDRFIGSGSGTDFTLTISSLQAEDVAVYYCQQYYSAPPWTFGGGTKVEIK
B7: UFKA-22-03 (antibody, human IgG1, V domains shown)
VH: EVQLVESGGGLVKPGGSLRLSCAASGFSFSNYAMSWVRQAPGKGLEWVSLISGGGSYSYYPDSLKGRFTISRDSAKNSLYLQMSSLRAEDTAVYYCARHMGYNDYLAWFAYWGQGTLVTVSS
VL: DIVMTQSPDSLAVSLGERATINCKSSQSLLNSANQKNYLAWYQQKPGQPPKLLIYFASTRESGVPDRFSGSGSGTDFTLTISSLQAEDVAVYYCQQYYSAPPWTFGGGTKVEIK
B8: UFKA-22-14 (antibody, human IgG1, V domains shown)
VH: EVQLVESGGGLVKPGGSLRLSCAASGFSFSNYAMSWVRQAPGKGLEWVSLISGGGSYSYYPDSLKGRFTISRDNAKNSLYLQMNSLRAEDTAVYYCARHMGYNDYLAWFAYWGQGTLVTVSA
VL: DIVMTQSPDSLAVSLGERATINCKSSQSLLNSANQKNYLAWYQQKPGQPPKLLIYFASTRESGVPDRFIGSGSGTDFTLTISSLQAEDVAVYYCQQYYSAPPWTFGGGTKVEIK
B9: UFKA-22-05 (antibody, human IgG1, V domains shown)
VH: EVQLVESGGGLVKPGGSLRLSCAASGFSFSNYAMSWVRQAPGKGLEWVSLISGGGSYSYYPDSLKGRFTISRDNAKNSLYLQMSSLRAEDTAMYYCARHMGYNDYLAWFAYWGQGTLVTVSS
VL: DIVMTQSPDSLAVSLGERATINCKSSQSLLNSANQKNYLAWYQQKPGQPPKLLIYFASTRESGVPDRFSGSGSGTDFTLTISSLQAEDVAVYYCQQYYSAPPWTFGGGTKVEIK
B10: UFKA-22-12 (antibody, human IgG1, V domains shown)
VH: EVQLVESGGGLVKPGGSLRLSCAASGFSFSNYAMSWVRQAPGKGLEWVSLISGGGSYSYYPDSLKGRFTISRDNAKNSLYLQMSSLRAEDTAMYYCARHMGYNDYLAWFAYWGQGTLVTVSS
VL: DIVMTQSPDSLAVSLGERATINCKSSQSLLNSANQKNYLAWYQQKPGQPPKLLIYFASTRESGVPDRFIGSGSGTDFTLTISSLQAEDVAVYYCQQYYSAPPWTFGGGTKVEIK
B11: UFKA-22-02 (antibody, human IgG1, V domains shown)
VH: EVQLVESGGGLVKPGGSLRLSCAASGFSFSNYAMSWVRQAPGKGLEWVSLISGGGSYSYYPDSLKGRFTISRDNAKNSLYLQMSSLRAEDTAVYYCARHMGYNDYLAWFAYWGQGTLVTVSS
VL: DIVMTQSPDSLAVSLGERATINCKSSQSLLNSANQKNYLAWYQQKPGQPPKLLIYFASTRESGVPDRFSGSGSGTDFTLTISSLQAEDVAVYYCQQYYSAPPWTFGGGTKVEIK
B12: UFKA-22-07 (antibody, human IgG1, V domains shown)
VH: EVQLVESGGGLVKPGGSLRLSCAASGFSFSNYAMSWVRQAPGKGLEWVSLISGGGSYSYYPDSLKGRFTISRDNAKNSLYLQMNSLRAEDTAVYYCARHMGYNDYLAWFAYWGQGTLVTVSS
VL: DIVMTQSPDSLAVSLGERATINCKSSQSLLNSANQKNYLAWYQQKPGQPPKLLIYFASTRESGVPDRFIGSGSGTDFTLTISSLQAEDVAVYYCQQYYSAPPWTFGGGTKVEIK
B13: UFKA-22-09 (antibody, human IgG1, V domains shown)
VH: EVQLVESGGGLVKPGGSLRLSCAASGFSFSNYAMSWVRQAPGKGLEWVSLISGGGSYSYYPDSLKGRFTISRDNAKNSLYLQMSSLRAEDTAVYYCARHMGYNDYLAWFAYWGQGTLVTVSS
VL: DIVMTQSPDSLAVSLGERATINCKSSQSLLNSANQKNYLAWYQQKPGQPPKLLIYFASTRESGVPDRFIGSGSGTDFTLTISSLQAEDVAVYYCQQYYSAPPWTFGGGTKVEIK
B14: UFKA-22-06 (antibody, human IgG1, V domains shown)
VH: EVQLVESGGGLVKPGGSLRLSCAASGFSFSNYAMSWVRQAPGKGLEWVSLISGGGSYSYYPDSLKGRFTISRDSAKNSLYLQMSSLRAEDTAMYYCARHMGYNDYLAWFAYWGQGTLVTVSS
VL: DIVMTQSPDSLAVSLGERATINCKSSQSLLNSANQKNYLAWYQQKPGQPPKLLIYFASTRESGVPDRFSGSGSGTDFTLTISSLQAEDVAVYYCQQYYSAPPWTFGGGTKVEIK
B15: UFKA-22-11 (antibody, human IgG1, V domains shown)
VH: EVQLVESGGGLVKPGGSLRLSCAASGFSFSNYAMSWVRQAPGKGLEWVSLISGGGSYSYYPDSLKGRFTISRDSAKNSLYLQMNSLRAEDTAMYYCARHMGYNDYLAWFAYWGQGTLVTVSS
VL: DIVMTQSPDSLAVSLGERATINCKSSQSLLNSANQKNYLAWYQQKPGQPPKLLIYFASTRESGVPDRFIGSGSGTDFTLTISSLQAEDVAVYYCQQYYSAPPWTFGGGTKVEIK
B16: 4 + 9 (antibody, V domains shown)
VH: EVMLVESGGGLVKPGGSLKLSCAASGFSFSNYAMSWVRQTPERRLEWVALISGGGRYSYYPDSLKGRFTISRDSARNSLYLQMSSLRSEDTAMYYCARHMGHNDYLAWFAYWGQGTLVTVSS
VL: DIVMTQSPSSLAVSVGQKVTMSCKSSQSLLNSANQRNYLAWYQQKPGQSPKLLIYWASTRESGVPDRFIGSGSGTDFTLNISSVQAEDLADYFCQQYYSAPPWTFGGGTKLEIKR
notes: UFKA-20 variant; also called UFKA-20 variant 4+9; vH chain 4, vL chain 9; copies: 2 + 2
B17: 4 + 10 (antibody, V domains shown)
VH: EVMLVESGGGLVKPGGSLKLSCAASGFSFSNYAMSWVRQTPERRLEWVALISGGGRYSYYPDSLKGRFTISRDSARNSLYLQMSSLRSEDTAMYYCARHMGHNDYLAWFAYWGQGTLVTVSS
VL: DIVMTQSPSSLAVSVGQKVTMSCKSSQSLLNVSNQRNYLAWYQQKPGQSPKLLIYFASTRESGVPDRFIGSGSGTDFTLNISSVQAEDLADYFCQQYYSCPPWTFGGGTKLEIKR
notes: UFKA-20 variant; also called UFKA-20 variant 4+10; vH chain 4, vL chain 10; copies: 2 + 2
B18: 103 + 6 (antibody, V domains shown)
VH: EVMLVESGGGLVKPGGSLKLSCAASGFSFSNYAMSWVRQTPERRLEWVALISGGGSYSYYPDSLKGRFTISRDSARNSLYLQMSSLRSEDTAMYYCARHMGYADYLAWFAYWGQGTLVTVSS
VL: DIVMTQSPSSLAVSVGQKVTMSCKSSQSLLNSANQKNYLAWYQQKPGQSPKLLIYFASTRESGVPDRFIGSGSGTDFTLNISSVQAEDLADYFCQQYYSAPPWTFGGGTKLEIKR
notes: UFKA-20 variant; copies: 2 + 2
B19: 103 + 9 (antibody, V domains shown)
VH: EVMLVESGGGLVKPGGSLKLSCAASGFSFSNYAMSWVRQTPERRLEWVALISGGGSYSYYPDSLKGRFTISRDSARNSLYLQMSSLRSEDTAMYYCARHMGYADYLAWFAYWGQGTLVTVSS
VL: DIVMTQSPSSLAVSVGQKVTMSCKSSQSLLNSANQRNYLAWYQQKPGQSPKLLIYWASTRESGVPDRFIGSGSGTDFTLNISSVQAEDLADYFCQQYYSAPPWTFGGGTKLEIKR
notes: as for B18
B20: 105 + 6 (antibody, V domains shown)
VH: EVMLVESGGGLVKPGGSLKLSCAASGFSFSNYAMSWVRQTPERRLEWVALISGGGSYSYYPDSLKGRFTISRDSARNSLYLQMSSLRSEDTAMYYCARHMGYNDALAWFAYWGQGTLVTVSS
VL: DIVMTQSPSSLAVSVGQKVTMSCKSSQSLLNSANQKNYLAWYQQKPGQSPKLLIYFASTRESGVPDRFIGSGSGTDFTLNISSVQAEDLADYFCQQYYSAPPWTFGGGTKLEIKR
notes: UFKA-20 variant; also called UFKA-20 variant 105+6; vH chain 105, vL chain 6; copies: 2 + 2

For the first assay, the target named is T1, human interleukin-2 (recombinant human IL-2, teceleukin) (human, UniProt P60568 21-153).
T1 construct: also called hIL-2; rhIL-2
T1 sequence (P60568 21-153 limits assumed): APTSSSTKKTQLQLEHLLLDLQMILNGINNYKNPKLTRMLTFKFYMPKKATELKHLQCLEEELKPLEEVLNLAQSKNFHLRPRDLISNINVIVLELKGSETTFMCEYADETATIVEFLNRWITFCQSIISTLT
In words: SPR. (Surface plasmon resonance follows binding to a sensor surface in real time, without labels.)
In the case of B1, the Kd came to 5.16 nM, the koff stood at 0.00283 s⁻¹ and the kon worked out at 548000 M⁻¹ s⁻¹.

Take B2: the equilibrium dissociation constant (Kd) amounted to 5.13 nM, the koff worked out at 0.00239 s⁻¹ and the association rate constant (kon) came to 466000 M⁻¹ s⁻¹.

For the molecule B3, the dissociation constant (Kd) is 5.33 nM, the off-rate constant (koff) is 0.00275 s⁻¹ and the on-rate (kon) worked out at 515000 M⁻¹ s⁻¹.

Take B4: the Kd turned out to be 5.31 nM, the dissociation rate constant (koff) turned out to be 0.00252 s⁻¹ and the kon is 475000 M⁻¹ s⁻¹.

For B5, the Kd was found to be 5.03 nM, the off-rate constant (koff) was 0.00241 s⁻¹ and the on-rate constant (kon) was found to be 479000 M⁻¹ s⁻¹.

Turning to B6, the dissociation constant Kd worked out at 4.56 nM, the koff was 0.00277 s⁻¹ and the kon is 607000 M⁻¹ s⁻¹.

As to B7, the dissociation constant (Kd) came out at 4.73 nM, the koff worked out at 0.00279 s⁻¹ and the kon turned out to be 590000 M⁻¹ s⁻¹.

As for B8, the Kd worked out at 4.3 nM, the off-rate (koff) was found to be 0.0024 s⁻¹ and the kon was 560000 M⁻¹ s⁻¹.

Take B9: the equilibrium dissociation constant (Kd) was determined as 4.86 nM, the off-rate (koff) was 0.0022 s⁻¹ and the kon is 452000 M⁻¹ s⁻¹.

With B10, the Kd is 5.05 nM, the off-rate (koff) was found to be 0.0024 s⁻¹ and the on-rate constant (kon) was found to be 474000 M⁻¹ s⁻¹.

With B11, the Kd was found to be 5.51 nM, the koff was 0.00227 s⁻¹ and the on-rate (kon) was 412000 M⁻¹ s⁻¹.

As for B12, the dissociation constant Kd was 5.17 nM, the koff turned out to be 0.00251 s⁻¹ and the kon was 486000 M⁻¹ s⁻¹.

In the case of B13, the Kd came to 5.27 nM, the koff was found to be 0.00246 s⁻¹ and the on-rate constant (kon) was found to be 466000 M⁻¹ s⁻¹.

As to B14, the Kd was determined as 4.45 nM, the koff came to 0.00252 s⁻¹ and the kon came to 567000 M⁻¹ s⁻¹.

As to B15, the dissociation constant Kd was 5.31 nM, the koff is 0.00275 s⁻¹ and the on-rate constant (kon) was 517000 M⁻¹ s⁻¹.

A further assay has as its target T1, human interleukin-2 (recombinant human …). Kind of assay: SPR. This is another data set of the same source. Here is the method:
Chip surface was regenerated after every cycle using glycine buffer pH 1.5. Measurements were acquired at 20° C. and analysed on a Biacore T100 (GE Healthcare).
For the molecule B2, the Kd stood at 5.13 nM, the koff is 0.00239 s⁻¹ and the on-rate constant (kon) amounted to 466000 M⁻¹ s⁻¹.

With B11, the Kd is 5.51 nM, the koff turned out to be 0.00227 s⁻¹ and the kon stood at 412000 M⁻¹ s⁻¹.

With B12, the Kd was 5.17 nM, the dissociation rate constant (koff) came to 0.00251 s⁻¹ and the kon was 486000 M⁻¹ s⁻¹.

For the next assay the target is unchanged. In words: single-cycle surface plasmon resonance (SPR).
For the molecule B16, the equilibrium dissociation constant (Kd) was found to be 1.02 nM.

On to B17, for which the dissociation constant Kd was found to be 33.6 nM.

Consider B18, for which the Kd was found to be 2.09 nM.

In the case of B19, the Kd was found to be 2.7 nM.

Take B20: the dissociation constant (Kd) came out at 0.429 nM.

One may read the Kd as a measure of binding affinity in units of concentration. The koff is the rate constant with which the complex falls apart. In general, kon refers to a measure of how fast the partners come together.
